Among the data in the Immune Epitope Database (IEDB) are Kd values, retold here.

Test [1] deals with HLA-A*02:02. The experiment in a line: IEDB peptide-MHC binding, purified MHC/competitive/radioactivity; filed as Kd, often an IC50 or EC50 that approximates it; ≥ and ≤ were set here for values at or beyond the usual limits of such assays.
In test [2] the target is HLA-A*02:03. Described as above.
Test [3] addresses HLA-A*02:06. The description is as above.
Test [4] concerns the target HLA-A*68:02. Described as above.
Test [5] deals with HLA-B*08:01. Described as above.
In test [6] the target is HLA-A*26:01. Described as above. To be noted: source organism: Dengue virus 2 16681-PDK53.
Test [7] has as its target HLA-A*30:01. The description is as above.
In test [8] the target is HLA-B*35:01. Described as above.
The target of test [9] is HLA-B*53:01. Described as above. The conditions noted are these: source organism: Dengue virus 1 Singapore/S275/1990.
Test [10] concerns the target HLA-B*51:01. The experiment in a line: IEDB peptide-MHC binding, purified MHC/competitive/fluorescence; filed as Kd, often an IC50 or EC50 that approximates it; ≥ and ≤ were set here for values at or beyond the usual limits of such assays.
In test [11] the target is HLA-A*03:01. In words: IEDB peptide-MHC binding, purified MHC/competitive/radioactivity; filed as Kd, often an IC50 or EC50 that approximates it; ≥ and ≤ were set here for values at or beyond the usual limits of such assays. The conditions noted are these: source organism: Dengue virus 4 Philippines/H241/1956.
Test [12] has as its target HLA-B*51:01. The description is as above. To be noted: source organism: Dengue virus 4 Philippines/H241/1956.
Test [13] concerns the target HLA-A*02:01. The experiment in a line: IEDB peptide-MHC binding, purified MHC/competitive/fluorescence; filed as Kd, often an IC50 or EC50 that approximates it; ≥ and ≤ were set here for values at or beyond the usual limits of such assays. To be noted: source organism: Variola virus.
In test [14] the target is HLA-B*15:01. The experiment in a line: IEDB peptide-MHC binding, purified MHC/competitive/radioactivity; filed as Kd, often an IC50 or EC50 that approximates it; ≥ and ≤ were set here for values at or beyond the usual limits of such assays. To be noted: source organism: Dengue virus 4 Philippines/H241/1956.
The mark [15] stands for this setting: source organism: Lassa virus GA391.
[16] abbreviates: source organism: Vaccinia virus WR.
Setting [17] is: source organism: Dengue virus 1 Singapore/S275/1990.
[18] abbreviates: source organism: Dengue virus 2 Jamaica/1409/1983.
The mark [19] stands for this setting: source organism: Dengue virus 1 Brazil/97-11/1997.
Where [20] appears, read: source organism: Mammarenavirus juninense.
Where [21] appears, read: source organism: Dengue virus 3 Martinique/1243/1999.
The mark [22] stands for this setting: source organism: Dengue virus 4 Philippines/H241/1956.
Where [23] appears, read: source organism: Lassa virus Josiah.

For the sequence NISGYNFSL, the Kd – broadly, the free concentration of one partner at which half of the binding sites on the other are occupied at equilibrium, for simple one-to-one binding – turned out to be 72.4 nM in test [1] (setting [15]), 2080 nM in [2] (setting [15]), 148 nM in test [3] (setting [15]) and 176 nM in [4] (setting [15]).

Regarding MSKIKHKIF, in test [5] (setting [16]), the dissociation constant (Kd) was found to be 0.842 nM.

As for CTILAVVSVS, the dissociation constant Kd in test [6] is not below 69.7 µM; in test [7] (source organism: Dengue virus 2 16681-PDK53), 9700 nM. Consider WATLLSLTF, for which the results for the Kd in test [8] (setting [17]) and in test [9] were 125 nM and 4.07 nM, respectively. Regarding EPNFSIPQI, the Kd in [10] (source organism: Mycobacterium tuberculosis variant bovis BCG str. Pasteur 1173P2) came to 268 nM.

Turning to KVKNVHIGG, the equilibrium dissociation constant (Kd) in test [7] (setting [16]) turned out to be 0.338 nM. In the case of SVNMISRMLI, the equilibrium dissociation constant (Kd) in test [4] (setting [18]) stood at 236 nM. With KVIVRNLNK, the dissociation constant (Kd) in [7] (setting [16]) stood at 1.44 nM. As to AIFMTATPPG, the Kd in test [7] (setting [19]) amounted to 179 nM. On to GLSQFTQTV, for which the Kd in test [1] (setting [20]) was 3.92 nM; in test [2] (setting [20]) it was 0.699 nM; in [3] (setting [20]) it was 721 nM; in test [4] (setting [20]) it was not below 26000 nM.

In the case of EAAAIFMTA, in test [4] (setting [19]), the Kd amounted to 0.301 nM.

In the case of KTMMINPFM, the Kd in [7] (setting [16]) turned out to be 0.362 nM.

As for RTATLILAGV, the Kd in [2] (setting [21]) stood at 6.47 nM; in test [3] (setting [21]) it was 5.19 nM; in test [4] (setting [21]), 0.26 nM. In test [10] (source organism: Listeria monocytogenes 10403S), LSYEPDNIV returned a Kd not below 20000 nM.

In the case of GGALVRNPLS, the Kd in [7] (setting [18]) is 5290 nM.

Regarding LVKESMASL, the Kd in test [1] (setting [16]) was 1120 nM; in test [2] (setting [16]), 9.46 nM; in [3] (setting [16]), 136 nM; in test [7] (setting [16]) it was 94.8 nM.

With SRFKKVYIL, the Kd in [5] (setting [16]) came to 76.4 nM.

With ENRLHKECL, the Kd in test [5] (setting [16]) came out at 73.2 nM. In the case of MVNGVVRLL, the dissociation constant (Kd) in [4] (setting [18]) stood at 25.8 nM. With ILKRWGQLK, the dissociation constant (Kd) in test [11] came to 3.58 nM; in test [7] (setting [22]), 318 nM. Consider MAMVLSIVSL, for which the dissociation constant Kd in [5] (setting [17]) is 830 nM. On to DLRRRFDTF, for which, in [5] (setting [16]), the Kd is 1.58 nM.

IPNDFKELV showed a Kd in [10] (source organism: Rickettsia typhi str. Wilmington) of 446 nM. Regarding RVHDTNATK, the dissociation constant Kd in [7] (setting [16]) was 7.65 nM. Consider FNKDIFVSL, for which the Kd in test [5] (setting [16]) amounted to 277 nM. For the sequence WTAGADTSEV, the Kd in test [4] (source organism: Dengue virus 4 Dominica/814669/1981) turned out to be 29.1 nM. For the sequence LLITHYAII, the Kd worked out at 18.1 nM in [2] (setting [21]) and 371 nM in test [5] (setting [21]).

With LPVYLMTLMK, the results for the Kd in test [8] (setting [22]) and in [12] were 330 nM and 7.15 µM, respectively. Regarding NMHLKRSVF, the Kd in test [5] (setting [16]) is 149 nM. Sequence QLNMEKREV showed an equilibrium dissociation constant (Kd) in test [13] of 142 nM.

In the case of HASPTLFNA, the Kd in test [7] (setting [16]) was 66.3 nM. For the sequence TTANISLTAI, the Kd in test [4] (setting [19]) turned out to be 0.8 nM. On to VLIALSVLAV, for which the Kd amounted to 162 nM in test [1] (setting [23]), 12.2 nM in test [2] (setting [23]), 128 nM in test [3] (setting [23]) and 3750 nM in [4] (setting [23]). As to RSTSLSVSLV, the dissociation constant (Kd) in test [4] (setting [18]) was found to be 253 nM. Turning to YRKYHVPIM, the Kd in test [5] (setting [16]) worked out at 61.8 nM. For the sequence LLNVKMALDI, the figures for the Kd in [2] (source organism: Homo sapiens) and in [4] (source organism: Homo sapiens) were 83.2 nM and 1000 nM, respectively. On to SGMVFTSPV, for which the Kd in [5] (setting [16]) came to 77.3 nM. For ELMMATIGI, the Kd in [4] (setting [18]) was 1.03 nM. In the case of HMILVVVTTL, the Kd in test [5] (setting [22]) amounted to 5170 nM; in test [14], 408 nM.
